Where “and” joins values, the source holds several entries; their conditions need not be identical. Equal entries are not always repeated.
Each binder was assayed against canine FcRn with a poly-His tag and canine B2M heterodimer complex (canine) (assay: SPR (Biacore T200), biotinylated canine FcRn/B2M complex on chip, Fc as analyte, pH 6.0).
Chain of canine FcRn with a poly-His tag and canine B2M heterodimer complex (canine) (chain, as listed by the source limits assumed, chain 1 of 2): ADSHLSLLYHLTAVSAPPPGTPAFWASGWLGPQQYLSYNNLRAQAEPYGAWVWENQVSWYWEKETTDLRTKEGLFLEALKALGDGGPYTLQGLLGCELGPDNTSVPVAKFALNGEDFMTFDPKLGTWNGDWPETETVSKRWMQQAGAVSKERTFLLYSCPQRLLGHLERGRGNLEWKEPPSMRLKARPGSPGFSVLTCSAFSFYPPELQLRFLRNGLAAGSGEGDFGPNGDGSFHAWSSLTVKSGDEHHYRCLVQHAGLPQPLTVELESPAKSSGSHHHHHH
Chain of canine FcRn with a poly-His tag and canine B2M heterodimer complex (canine) (b2m, as listed by the source limits assumed, chain 2 of 2): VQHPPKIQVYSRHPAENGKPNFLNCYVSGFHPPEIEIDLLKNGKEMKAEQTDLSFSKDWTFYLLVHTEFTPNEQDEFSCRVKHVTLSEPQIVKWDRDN

Row | Binder | koff
1 | variant canine IgG-B Fc polypeptide L(23)M (SASA tag) (protein, part only; not given: SASA tag, not shown: another chain or arm of the molecule; small tags and cut ends) Fc: PAPEMLGGPSVFIFPPKPKDTLMIARTPEVTCVVVDLDPEDPEVQISWFVDGKQMQTAKTQPREEQFNGTYRVVSVLPIGHQDWLKGKQFTCKVNNKALPSPIERTISKARGQAHQPSVYVLPPSREELSKNTVSLTCLIKDFFPPDIDVEWQSNGQQEPESKYRTTPPQLDEDGSYFLYSKLSVDKSRWQRGDTFICAVMHEALHNHYTQESLSHSPGK | 0.126 s⁻¹
2 | variant canine IgG-B Fc polypeptide L(23)F (SASA tag) (protein, part only; not given: SASA tag, not shown: another chain or arm of the molecule; small tags and cut ends) Fc: PAPEMLGGPSVFIFPPKPKDTLFIARTPEVTCVVVDLDPEDPEVQISWFVDGKQMQTAKTQPREEQFNGTYRVVSVLPIGHQDWLKGKQFTCKVNNKALPSPIERTISKARGQAHQPSVYVLPPSREELSKNTVSLTCLIKDFFPPDIDVEWQSNGQQEPESKYRTTPPQLDEDGSYFLYSKLSVDKSRWQRGDTFICAVMHEALHNHYTQESLSHSPGK | 0.0631 s⁻¹ and 0.0847 s⁻¹

Now from value to binder:

Row | koff | Binder
3 | 0.122 s⁻¹ | wild-type canine IgG-B Fc polypeptide (SASA tag) (protein, part only; not given: SASA tag, not shown: another chain or arm of the molecule; small tags and cut ends) Fc: PAPEMLGGPSVFIFPPKPKDTLLIARTPEVTCVVVDLDPEDPEVQISWFVDGKQMQTAKTQPREEQFNGTYRVVSVLPIGHQDWLKGKQFTCKVNNKALPSPIERTISKARGQAHQPSVYVLPPSREELSKNTVSLTCLIKDFFPPDIDVEWQSNGQQEPESKYRTTPPQLDEDGSYFLYSKLSVDKSRWQRGDTFICAVMHEALHNHYTQESLSHSPGK
4 | 0.241 s⁻¹ | variant canine IgG-B Fc polypeptide L(23)S (SASA tag) (protein, part only; not given: SASA tag, not shown: another chain or arm of the molecule; small tags and cut ends) Fc: PAPEMLGGPSVFIFPPKPKDTLSIARTPEVTCVVVDLDPEDPEVQISWFVDGKQMQTAKTQPREEQFNGTYRVVSVLPIGHQDWLKGKQFTCKVNNKALPSPIERTISKARGQAHQPSVYVLPPSREELSKNTVSLTCLIKDFFPPDIDVEWQSNGQQEPESKYRTTPPQLDEDGSYFLYSKLSVDKSRWQRGDTFICAVMHEALHNHYTQESLSHSPGK
5 | 0.0138 s⁻¹ | variant canine IgG-B Fc polypeptide L(23)Y (SASA tag) (protein, part only; not given: SASA tag, not shown: another chain or arm of the molecule; small tags and cut ends) Fc: PAPEMLGGPSVFIFPPKPKDTLYIARTPEVTCVVVDLDPEDPEVQISWFVDGKQMQTAKTQPREEQFNGTYRVVSVLPIGHQDWLKGKQFTCKVNNKALPSPIERTISKARGQAHQPSVYVLPPSREELSKNTVSLTCLIKDFFPPDIDVEWQSNGQQEPESKYRTTPPQLDEDGSYFLYSKLSVDKSRWQRGDTFICAVMHEALHNHYTQESLSHSPGK
